Laboratory results: paper PMC8583712, “p53 Transactivation Domain Mediates Binding and Phase Separation with Poly-PR/GR” (International Journal of Molecular Sciences, 2021)
Where no end group is shown, it is not given here. The star is where a group is joined. FITC = O=C1OC2(c3ccc(O)cc3Oc3cc(O)ccc32)c2ccc(NC(=S)*)cc21

B1: N-terminally fluorescein isothiocyanate (FITC)-labelled GR25 (peptide)
peptide: {FITC}-GRGRGRGRGRGRGRGRGRGRGRGRGRGRGRGRGRGRGRGRGRGRGRGRGR
notes: C9orf72 repeat-derived dipeptide repeat; also called FITC-labeled GR25; FITC-GR25; source: synthetic peptide (Peptide Specialty Laboratories GmbH, HPLC-purified)
B2: N-terminally fluorescein isothiocyanate (FITC)-labelled PR25 (peptide)
peptide: {FITC}-PRPRPRPRPRPRPRPRPRPRPRPRPRPRPRPRPRPRPRPRPRPRPRPRPR
notes: C9orf72 repeat-derived dipeptide repeat; also called FITC-labeled PR25; FITC-PR25; source: synthetic peptide (Peptide Specialty Laboratories GmbH, HPLC-purified)
B3: p53^TAD2 (human p53 transactivation domain 2, amino acids 37 to 57) (domain or fragment, UniProt P04637 37-57, looked up)
chain: SQAMDDLMLSPDDIEQWFTED
notes: human p53, amino acids 37 to 57 (TAD2 construct); 15N-labelled for NMR, unlabelled for fluorescence polarisation; source: E. coli BL21-DE3 Star, purified (lysis in 6 M urea, Ni-NTA, TEV cleavage, second Ni-NTA, SEC on Superdex Peptide)

Assays:
p53^TAD2 = target: T1, p53^TAD2 (Homo sapiens, UniProt P04637); test: Fluorescence polarization, FITC-labeled PR25/GR25 with p53^TAD2; assay type: binding; conditions: 100 nM FITC-labelled (N-terminal) peptide, 20 mM Hepes pH 7.0, 50 mM NaCl, 2 mM TCEP, 0.04% NaN3, room temperature, 35 µL, λex 495/λem 530 nm; 1:1 complex; mean of three experiments, errors = SD of the fit; read-out: equilibrium dissociation constant (Kd), p53^TAD2
T1 construct: amino acids 37 to 57 (p53 ^TAD2); ZZ-His6 (cleaved yes); made in house; host or cells: E. coli BL21-DE3 Star
Text: Measurements were taken at room temperature in black 384-well plates using a ClarioStar Plus (BMG labtech, Ortenberg, Germany) spectrophotometer. Filters were selected as a function of FITC optical characteristics (λex= 495 nm, and λem= 530 nm). […] The polarization data were fitted using graphpad prism 8 with the following equation:(3) P=P0+Pmax×L/L + Kd
Here, P0 represents the polarization of FITC-labelled peptides in absence of p53^1−94 and p53^TAD2, and Pmax to the highest polarization of the binding curve corresponding to the saturation of the interaction. L corresponds to the concentration of p53^1–94 and p53^TAD2 proteins, and Kd is the dissociation constant.

[1] = target: T2, p53^1-94 (human p53 residues 1 to 94: transactivation domains 1 and 2 and poly-proline region) (human, UniProt P04637 1-94); test: fluorescence polarisation; 100 nM FITC-labelled PR25/GR25 with increasing concentrations of p53 1-94 or p53 TAD2; room temperature; 20 mM Hepes pH 7.0, 50 mM NaCl, 2 mM TCEP, 0.04% NaN3; fit assuming a 1:1 complex; conditions: both partners purified
T2 construct: human p53, amino acids 1 to 94; 15N- or 13C,15N-labelled for NMR, unlabelled for fluorescence polarisation; also called N-terminal disordered region; source: E. coli BL21-DE3 Star, purified (lysis in 6 M urea, Ni-NTA, TEV cleavage, second Ni-NTA, SEC on Superdex 75 Increase)
T2 sequence (P04637 1-94): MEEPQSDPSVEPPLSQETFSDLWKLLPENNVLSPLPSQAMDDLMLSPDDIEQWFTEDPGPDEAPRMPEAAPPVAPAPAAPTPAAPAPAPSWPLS

[2] = target: B2; test: as above; conditions: both partners purified
[3] = target: B1; test: as above; conditions: both partners purified

Row | Kd (p53^TAD2) | Kd [1] | other results | Molecule
1 | 2.85 ± 0.51 µM | – | – | N=C(N)NCCC[C@H](NC(=O)CNC(=O)[C@H](CCCNC(=N)N)NC(=O)CNC(=O)[C@H](CCCNC(=N)N)NC(=O)CNC(=O)[C@H](CCCNC(=N)N)NC(=O)CNC(=O)[C@H](CCCNC(=N)N)NC(=O)CNC(=O)[C@H](CCCNC(=N)N)NC(=O)CNC(=O)[C@H](CCCNC(=N)N)NC(=O)CNC(=O)[C@H](CCCNC(=N)N)NC(=O)CNC(=O)[C@H](CCCNC(=N)N)NC(=O)CNC(=O)[C@H](CCCNC(=N)N)NC(=O)CNC(=O)[C@H](CCCNC(=N)N)NC(=O)CNC(=O)[C@H](CCCNC(=N)N)NC(=O)CNC(=O)[C@H](CCCNC(=N)N)NC(=O)CNC(=O)[C@H](CCCNC(=N)N)NC(=O)CNC(=O)[C@H](CCCNC(=N)N)NC(=O)CNC(=O)[C@H](CCCNC(=N)N)NC(=O)CNC(=O)[C@H](CCCNC(=N)N)NC(=O)CNC(=O)[C@H](CCCNC(=N)N)NC(=O)CNC(=O)[C@H](CCCNC(=N)N)NC(=O)CNC(=O)[C@H](CCCNC(=N)N)NC(=O)CNC(=O)[C@H](CCCNC(=N)N)NC(=O)CNC(=O)[C@H](CCCNC(=N)N)NC(=O)CNC(=O)[C@H](CCCNC(=N)N)NC(=O)CNC(=O)[C@H](CCCNC(=N)N)NC(=O)CNC(=O)[C@H](CCCNC(=N)N)NC(=O)CN)C(=O)O [GR25]
2 | 3.64 ± 1.16 µM | – | – | N=C(N)NCCC[C@H](NC(=O)[C@@H]1CCCN1C(=O)[C@H](CCCNC(=N)N)NC(=O)[C@@H]1CCCN1C(=O)[C@H](CCCNC(=N)N)NC(=O)[C@@H]1CCCN1C(=O)[C@H](CCCNC(=N)N)NC(=O)[C@@H]1CCCN1C(=O)[C@H](CCCNC(=N)N)NC(=O)[C@@H]1CCCN1C(=O)[C@H](CCCNC(=N)N)NC(=O)[C@@H]1CCCN1C(=O)[C@H](CCCNC(=N)N)NC(=O)[C@@H]1CCCN1C(=O)[C@H](CCCNC(=N)N)NC(=O)[C@@H]1CCCN1C(=O)[C@H](CCCNC(=N)N)NC(=O)[C@@H]1CCCN1C(=O)[C@H](CCCNC(=N)N)NC(=O)[C@@H]1CCCN1C(=O)[C@H](CCCNC(=N)N)NC(=O)[C@@H]1CCCN1C(=O)[C@H](CCCNC(=N)N)NC(=O)[C@@H]1CCCN1C(=O)[C@H](CCCNC(=N)N)NC(=O)[C@@H]1CCCN1C(=O)[C@H](CCCNC(=N)N)NC(=O)[C@@H]1CCCN1C(=O)[C@H](CCCNC(=N)N)NC(=O)[C@@H]1CCCN1C(=O)[C@H](CCCNC(=N)N)NC(=O)[C@@H]1CCCN1C(=O)[C@H](CCCNC(=N)N)NC(=O)[C@@H]1CCCN1C(=O)[C@H](CCCNC(=N)N)NC(=O)[C@@H]1CCCN1C(=O)[C@H](CCCNC(=N)N)NC(=O)[C@@H]1CCCN1C(=O)[C@H](CCCNC(=N)N)NC(=O)[C@@H]1CCCN1C(=O)[C@H](CCCNC(=N)N)NC(=O)[C@@H]1CCCN1C(=O)[C@H](CCCNC(=N)N)NC(=O)[C@@H]1CCCN1C(=O)[C@H](CCCNC(=N)N)NC(=O)[C@@H]1CCCN1C(=O)[C@H](CCCNC(=N)N)NC(=O)[C@@H]1CCCN1C(=O)[C@H](CCCNC(=N)N)NC(=O)[C@@H]1CCCN1)C(=O)O [PR25]
3 | – | 0.43 µM | – | B1
4 | – | 1.84 µM | – | B2
5 | – | – | Kd [2]: 3.64 µM; Kd [3]: 2.85 µM | B3
